In article PMC8091058, “Distinct intramolecular interactions regulate autoinhibition of vinculin binding in αT-catenin and αE-catenin” (The Journal of Biological Chemistry, 2021):

B4: αT-catenin head region (aa 1–659) (domain or fragment, Mus musculus, UniProt Q65CL1 1-659, looked up)
chain: MSAETPITLNMDTQDLQIQTFTVEKLLEPLIIQVTTLVNCPQNPSNRKKGRSKRARVLLASVEEATWNLLDKGEMIAKEATVLKEELAAALQEVRKESKALKVSAERFTDDPCYLPKREAVVQAARALLAAVTRLLVLADMIDVMCLLQHVSSFQRTFESLKNVSNKSDLQRTYQKLGKELESLDYLAFKRQQDLKSPSQRDEIAGARATLKENSPLLHSICSACLEHSDVASLKASKDTVCEEIQNALDVISNASQGIQNAPAPPEPQAATLGSAFDELENLIVLNPLTVTEEDVRPSLEKRLEAIISGAALLADSSCTRDLHRERIIAECNAIRQALQDLLTEYMSNTGKTERSNTLNTAIVNMSKKTRDLRRQLRKAIIDHISDSFLDTTVPLLVLIEAAKNGRVKEIKDYAAIFHEHTGRLVEVANLACSMSTNEDGIKIVRIAANHLETLCPQIINAALALASRPKSQVVKNTMEMYKRTWEHYIHVLTEAVDDITSIDDFLAVSESHILEDVNKCIIALRDQDADNLDRAAGAIRGRAARVAHIVAGEMDSYEPGAYTEGVMRNVNFLTSTVIPEFVTQVNVALDALSKNSLTALDDNQFVDISKKIYDTIHDIRCSVMMIRTPEELEDVSDLEDDHEVRSHTSIQTEGKTDR
notes: αT-catenin, Mus musculus, head region (N- and M-domains), aa 1-659; in pGEX-TEV; also called αT-catenin head (1–659); αT-catenin N1-M3 (aa 1–659); source: E. coli BL21-Gold, purified (glutathione-agarose, TEV cleavage, Mono Q or Mono S, S200)
B5: β-catenin (natural protein, Mus musculus, UniProt Q02248 1-781, looked up)
chain: MATQADLMELDMAMEPDRKAAVSHWQQQSYLDSGIHSGATTTAPSLSGKGNPEEEDVDTSQVLYEWEQGFSQSFTQEQVADIDGQYAMTRAQRVRAAMFPETLDEGMQIPSTQFDAAHPTNVQRLAEPSQMLKHAVVNLINYQDDAELATRAIPELTKLLNDEDQVVVNKAAVMVHQLSKKEASRHAIMRSPQMVSAIVRTMQNTNDVETARCTAGTLHNLSHHREGLLAIFKSGGIPALVKMLGSPVDSVLFYAITTLHNLLLHQEGAKMAVRLAGGLQKMVALLNKTNVKFLAITTDCLQILAYGNQESKLIILASGGPQALVNIMRTYTYEKLLWTTSRVLKVLSVCSSNKPAIVEAGGMQALGLHLTDPSQRLVQNCLWTLRNLSDAATKQEGMEGLLGTLVQLLGSDDINVVTCAAGILSNLTCNNYKNKMMVCQVGGIEALVRTVLRAGDREDITEPAICALRHLTSRHQEAEMAQNAVRLHYGLPVVVKLLHPPSHWPLIKATVGLIRNLALCPANHAPLREQGAIPRLVQLLVRAHQDTQRRTSMGGTQQQFVEGVRMEEIVEGCTGALHILARDVHNRIVIRGLNTIPLFVQLLYSPIENIQRVAAGVLCELAQDKEAAEAIEAEGATAPLTELLHSRNEGVATYAAAVLFRMSEDKPQDYKKRLSVELTSSLFRTEPMAWNETADLGLDIGAQGEALGYRQDDPSYRSFHSGGYGQDALGMDPMMEHEMGGHHPGADYPVDGLPDLGHAQDLMDGLPPGDSNQLAWFDTDL
notes: β-catenin, Mus musculus, full length; in pGEX-TEV; source: E. coli BL21-Gold, purified (glutathione-agarose, TEV cleavage, Mono Q or Mono S, S200)

Columns and labels:
vinculin D1 = molecular target: T1, vinculin D1 (Mus musculus, UniProt Q64727); assay: ITC
T1 chain: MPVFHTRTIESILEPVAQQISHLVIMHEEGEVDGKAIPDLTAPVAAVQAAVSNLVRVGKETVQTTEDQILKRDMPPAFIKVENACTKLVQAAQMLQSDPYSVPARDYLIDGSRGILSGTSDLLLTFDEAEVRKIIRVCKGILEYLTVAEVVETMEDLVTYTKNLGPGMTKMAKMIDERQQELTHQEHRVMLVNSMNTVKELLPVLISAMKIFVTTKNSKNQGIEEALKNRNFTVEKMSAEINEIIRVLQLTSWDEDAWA

[1] = molecular target: the molecule itself; assay: SEC; analytical SEC of 30 μM protein
[2] = molecular target: T2, β-catenin–N-cadherin cytoplasmic tail complex (Mus musculus | , UniProt Q02248 1-781; P15116 746-906); assay: ITC; β-catenin (110-150 μM) or β-catenin–Ncad_(cyto) complex (103-158 μM) injected into αT-catenin fragment in the cell; 25 °C; 20 mM Hepes pH 8.0, 150 mM NaCl, 1 mM TCEP; settings: both partners purified
T2 construct: β-catenin, Mus musculus, full length; N-cadherin cytoplasmic tail (Ncad_(cyto)); the methods name no plasmid for the N-cadherin tail; also called β-catenin–Ncad_(cyto); β-cat–Ncad_(cyto); source: β-catenin: E. coli BL21-Gold, purified
T2 sequence (looked up) 1: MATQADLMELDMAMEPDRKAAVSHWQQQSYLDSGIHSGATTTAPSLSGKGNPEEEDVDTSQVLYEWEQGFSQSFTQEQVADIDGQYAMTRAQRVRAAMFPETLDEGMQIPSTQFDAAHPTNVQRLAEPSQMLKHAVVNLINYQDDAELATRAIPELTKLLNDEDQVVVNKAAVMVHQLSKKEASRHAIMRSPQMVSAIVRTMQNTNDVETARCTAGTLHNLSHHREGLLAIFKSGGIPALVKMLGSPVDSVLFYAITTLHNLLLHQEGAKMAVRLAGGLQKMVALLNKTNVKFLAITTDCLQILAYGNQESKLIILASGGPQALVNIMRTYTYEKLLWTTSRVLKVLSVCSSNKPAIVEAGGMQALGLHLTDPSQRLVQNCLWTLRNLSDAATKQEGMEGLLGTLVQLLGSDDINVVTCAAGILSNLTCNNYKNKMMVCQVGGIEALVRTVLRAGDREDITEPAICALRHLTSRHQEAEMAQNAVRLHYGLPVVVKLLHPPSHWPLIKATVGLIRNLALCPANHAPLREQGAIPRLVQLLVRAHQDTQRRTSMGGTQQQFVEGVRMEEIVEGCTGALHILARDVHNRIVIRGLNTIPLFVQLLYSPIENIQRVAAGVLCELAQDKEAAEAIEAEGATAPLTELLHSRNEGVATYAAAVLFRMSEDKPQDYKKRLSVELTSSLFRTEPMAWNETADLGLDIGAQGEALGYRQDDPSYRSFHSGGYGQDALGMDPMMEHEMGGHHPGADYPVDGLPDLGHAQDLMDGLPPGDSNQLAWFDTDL
T2 sequence (looked up) 2: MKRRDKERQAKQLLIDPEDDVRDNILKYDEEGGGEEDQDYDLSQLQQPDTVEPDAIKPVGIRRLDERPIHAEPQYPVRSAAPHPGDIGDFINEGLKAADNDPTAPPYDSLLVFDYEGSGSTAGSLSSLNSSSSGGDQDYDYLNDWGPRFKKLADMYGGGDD

β-catenin = molecular target: B5; assay: as above; settings: both partners purified
[3] = molecular target: B4; assay: as above; settings: both partners purified

B1: 2I27–αT-catenin M1-M3–2I27 259-667 (protein)
chain: IQNAPAPPEPQAATLGSAFDELENLIVLNPLTVTEEDVRPSLEKRLEAIISGAALLADSSCTRDLHRERIIAECNAIRQALQDLLTEYMSNTGKTERSNTLNTAIVNMSKKTRDLRRQLRKAIIDHISDSFLDTTVPLLVLIEAAKNGRVKEIKDYAAIFHEHTGRLVEVANLACSMSTNEDGIKIVRIAANHLETLCPQIINAALALASRPKSQVVKNTMEMYKRTWEHYIHVLTEAVDDITSIDDFLAVSESHILEDVNKCIIALRDQDADNLDRAAGAIRGRAARVAHIVAGEMDSYEPGAYTEGVMRNVNFLTSTVIPEFVTQVNVALDALSKNSLTALDDNQFVDISKKIYDTIHDIRCSVMMIRTPEELEDVSDLEDDHEVRSHTSIQTEGKTDRAKMTQLPE
modifications: 2I27 fusion at both ends
Kd (vinculin D1): ~250 nM

B2: αT-catenin V94D N1-N2 (domain or fragment, Mus musculus, UniProt Q65CL1 1-259, looked up)
chain: MSAETPITLNMDTQDLQIQTFTVEKLLEPLIIQVTTLVNCPQNPSNRKKGRSKRARVLLASVEEATWNLLDKGEMIAKEATVLKEELAAALQEDRKESKALKVSAERFTDDPCYLPKREAVVQAARALLAAVTRLLVLADMIDVMCLLQHVSSFQRTFESLKNVSNKSDLQRTYQKLGKELESLDYLAFKRQQDLKSPSQRDEIAGARATLKENSPLLHSICSACLEHSDVASLKASKDTVCEEIQNALDVISNASQGI
notes: αT-catenin N1-N2 (aa 1-259) with V94D, a point mutation linked to arrhythmogenic ventricular cardiomyopathy in humans; also called V94D mutant; source: E. coli BL21-Gold, purified (glutathione-agarose, TEV cleavage, Mono Q or Mono S, S200)
stoichiometry N [1]: 2

B3: αT-catenin N1-N2 (aa 1–259) (domain or fragment, Mus musculus, UniProt Q65CL1 1-259, looked up)
chain: MSAETPITLNMDTQDLQIQTFTVEKLLEPLIIQVTTLVNCPQNPSNRKKGRSKRARVLLASVEEATWNLLDKGEMIAKEATVLKEELAAALQEVRKESKALKVSAERFTDDPCYLPKREAVVQAARALLAAVTRLLVLADMIDVMCLLQHVSSFQRTFESLKNVSNKSDLQRTYQKLGKELESLDYLAFKRQQDLKSPSQRDEIAGARATLKENSPLLHSICSACLEHSDVASLKASKDTVCEEIQNALDVISNASQGI
notes: αT-catenin, Mus musculus, N1-N2, aa 1-259; in pGEX-TEV; also called αT-catenin WT N1-N2; αT-catenin N1-N2 (1–259); source: E. coli BL21-Gold, purified (glutathione-agarose, TEV cleavage, Mono Q or Mono S, S200)
Kd [2]: 6.9 ± 12 nM

B4
Kd (β-catenin): 264 ± 109 nM
Kd [2]: 5.6 ± 0.6 nM

B5
dH [3]: -14.6 ± 2.1 kcal/mol
